Data taken from the DeepSol protein solubility set.

Assay: soluble on expression in E. coli; label from the status in PepcDB or PDB records

Row | Sequence | soluble on expression in E. coli
1 | MKFEDLLATNKQVQFAHAATQHYKSVKTPDFLEKDPHHKKFHNADGLNQQGSSTPSTATDANAASTASTHTNTTTFKRHIVAVDDISKMNYEMIKNSPGNVITNANQDEIDISTLKTRLYKDNLYAMNDNFLQAVNDQIVTLNAAEQDQETEDPDLSDDEKIDILTKIQENLLEEYQKLSQKERKWFILKELLLDANVELDLFSNRGRKASHPIAFGAVAIPTNVNANSLAFNRTKRRKINKNGLLENIL | soluble
2 | MKFGIVARRDKEEALKLAYRVYDFLKVHGYEVVVDKETYEHFPHFKEGDVIPLDEFDVDFIVAIGGDGTILRIEHMTKKDIPILSINMGTLGFLTEVEPSDTFFALNRLIEGEYYIDERIKVRTYIDGENRVPDALNEVAILTGIPGKIIHMKYYVDGGLADEVRADGLVVSTPTGSTGYAMSAGGPFIDPRLDVILIAPLLPLPKTSVPMVIPGSSRIDIRMLTDREIILAIDGQYYEHLPPNVEITVVKSPRKTKFIRFTREIYPKYTIRIKERHMAGDPLEHHHHHH | not soluble
3 | MKFIFFVLYVLQFLPFALLHKIADLTGLLAYLLVKPRRRIGEINLAKCFSEWSEEKRKTVLKQHFKHMAKLMLEYGLYWYAPAGRLKSLVRYRNKHYLDDALAAGEKVIILYPHFTAFEMAVYALNQDIPLISMYSHQKNKILDEQILKGRNRYHNVFLIGRTEGLRALVKQFRKSSAPFLYLPDQDFGRNDSVFVDFFGIQTATITGLSRIAALANAKVIPAIPVREADNTVTLHFYPAWKSFPGEDAKADAQRMNRFIEDRVREHPEQYFWLHKRFKTRPEGSPDFY | not soluble
4 | MKFLFIVQGEGRGHLTQAITLEEILRRNGHEVVEVLVGKSSSRRLPGFFNRNIHAPVKRFVSPNFLPTPANKRVSLMRSVAYNLVKLPVYINSINYIRQRIEASGADRVINFYELLTGLTYFLFRPSVPQICIGHQYLFLHKSFEFPKADKVSLALLKFFTVLTSLGAKERLALSFRHMKDDPQNHIRVIPPLLRREVTLHEPYSGDYIHGYMVNAGFSENVMKWHRQHPGIPLRFFWDKWEEEPVKRVDNTLSFYQLDDVEFLRQMAGCKAYASTAGFESVCEAMYLGKPILMVPAHIEQDCNAYDAEKSGAGIISSDFNLQQLLEFAKDYHPNRDFVYWVRGAEYTLLNLLESDSSNYQQVLFNEMYLVEEFI | not soluble
5 | MKFLLAVFLLAVCSLGESKKPKAQKVIYVQKVVPPQKQLSEYDLCKEQCRIESETQSNKERVELLKQEIDRAEQLLAEHNKHVDAPEIAPETYMEAGQVPPMRKASRYDHLKMAANKIVESTSELKNAVTGGGDN | not soluble
6 | MKFLQFALLFFIICITTTDASKKTQRVLKKVGKRFSLSEFGVVQRLDYMWRTAETVEAARNHSAELVARLLLSQSSADNLKFQESADILYSLMDNNFEGKICGGDETLNFYQMSDYWKRQRKTYRRNEKENVTWRAYPIEDNAYNKFMVRFNSKSTWGYSATMIYVVHMRLLGEKKYSNYTLTKIEEVGACTEYGGVSLENTNLYELDPERLETRDKLLKHLQELFYTEQKVSEIPFDWIYSSASEKELKIEVCHGTELKKMAKKDFIKWWEWFQMMCRPVKGENEHTLVQITGGVYDRLVFRVTMLVHVGTEDIHPTEEFSFKLQFKYDVHGDKEWLINKFEVMCPTIAVPEADLMKKHALVYREIIGSRLQLMVNNPELWYNFAEAIVALTSPTYEVENCAGKGEEMEKGTDMYQLKHTFWKLNKDTHGRMEGYTLGKKNDISETGEKMWARIRIIWTPGNDKLVYDSRWTFYLEWNSDLQAFTIYKMILQCPTVARIGEIKYYSSLNKPTTNTTSQ | not soluble
7 | MKFPGQRKSKHYFPVKTRDPLLEQLTQQPQPFATYISGIDQTLVDIEAKVEDELLSRYGLPKGNSTLINDEQAHRLYTELKIHGLISDEFAGGTIGNTVHNYSILADDRSVLFGVMSQNIEVGSYAYRYLCNTSSKVDLNYLQPVDGPIGRCFTLISDCGERTFAISKGAMDKLTPEFIDKDVVQGSSALVLTAYLMRASGGDRITDAAMCAIEYAKAADVPVVLTLGTRFLIEEDPLWWQNFIKEHVTILAMNEDEGEALTGSRDPLLASEKALEWCDMVLTTAGPIGLYTAGYTEDSEKRETTHTLLPGAIPEFNRYEFSRPKLKSDCETPIKVYAHISPYMGGPEKIGNTNGAGDGALSALLHDLAANTFHKTNVPGSSKHKRDGLCYSSFSQICKYANRVAYEVLAQHSPRLSRGLPEREDSLEESYWER | soluble
8 | MKFTIVIPIFNRVQYIPETLDSVIRQTYTDLEIICVDDCSSDRSPVLLQDYAKTDLRIKVLTHAKNKGLYLARKTGVLNASGDYILFLDCDDVLDLHAVEVIYNALCKNSVEVLEYGYHSIHANENTVPDSAITVDKLFSSLVYDRYPRAGTVWNKAYKTELLKNAFSKMSDFHAVMGEDFYESVIIAYYAKSYSSIDDVLVIYNDESGISNTRKNLASIQKDLDSVVAILNGFRFFFESYASEHKEAVLNIESYYIRYVYYNLILLKTNKTDRKMAVDLLKDYFSAEAAAPYFNKTKPAVTRDAVMYKIRAVIKRYISKKLREMIKKIIRRYDKKPQQK | not soluble
9 | MKGGAGVPDLPSLDASGVRLAIVASSWHGKICDALLDGARKVAAGCGLDDPTVVRVLGAIEIPVVAQELARNHDAVVALGVVIRGQTPHFDYVCDAVTQGLTRVSLDSSTPIANGVLTTNTEEQALDRAGLPTSAEDKGAQATVAALATALTLRELRAHS | soluble
10 | MKGKKVLITSGGCLEKWDQVRGHTNMAKGTIGRIIAEELLAKGAHVIYLHGYFAEKPSDVHRGLELHPFEGIVDLQDKMKSIISHEKVDAVIMAAAGSDWIVEKICDQDGNVLNMNGKISSDIAPIIHFQKAPKVLKQIKEWDPETVLVGFKLESDLNEEELFERAKNRMKEARANVMIANSPHSLYSRGAVHYVIGQDGKGKLCNGKDETAKEIVKSLEVLCNRVTAF | not soluble
11 | MKGKSILSEGKQIQLATELVRLGARLQVLEASTTLSRERLVKLYKEVKGASPPKGMLPYSEDWFTGWQPNMHSSLFINIYNYITRYTKVRDIDAIIKSYQLYLEHIEANRLQRILSFTRAWTLVRFVESKVLSVTSCVKCTGNFLVHSLDIQSNHVCGLCHVPSRAGKTKRVAQEARAAQEAGAGELCVI | not soluble
12 | MKGNFVVSKEDWSLHRKGYDDQKRHQEKVKEAIKNNLPDLITEESIIMSNGRDVIKIPIRSLDEYKIRYNYEKNKHVGQGNGDSQVGDVVARDGSGEGQGPGKGQGAGDLPGQDYYEAEVSLMEIEEAFFSQLELPNLQRKELDQNVTQHIEFNDIRRTGLMGNIDKKRTMLAAFKRNAMNGKPGFYPIYREDLKFKTWNEVVKPESKAVVLAMMDTSGSMGMWEKYMARSFFFWMTRFLRTKYETVEIAFIAHHTEAKVVTEEEFFTKGESGGTICSSAYRKALELIETKYSPSRYNIYPFHFSDGDNLTSDNARCVKLVQELMKVSNMFGYGEVNQYNRHSTLMSAYRNIKDEKFRYYILKQKSDVFHAMRTFFRKEESKQLV | not soluble
13 | MKGVRSMMGNLVITIGRECGSAGRLIGQKLAADLGVKCYDKELLTLAAKNSGLCEELFKTHDEKPTSSFLYSLVMDTYSLGYNTSAYMDMPINHKIFLAQFDTIKKLAEEESCVIVGRCADYALADYPNTVSVFICGDEEDKIRHLMERHNVDEAKAKDIMIKTDKRRASYYNYYSSKRWGSCKSYDMCISSSAVGYDGAVDIIKEFAKKKQEFLKTKNYK | not soluble
14 | MKGYFETNRIQHIIVDEAQNFHTEDGNWCEKAKGITQGGKACPRMFWIFLDYFQTSHLKESGLPDFELQYPKEELTQVVRNGDKIAEFLQQELGKIRDNPPCSIPRASLNIVHEFKWSQSISGTLKIKYLTSEKMVSYVANKCDVFLSKGYSPQDIAVLFSTDREKKAYEHMFLREMRKKRRASQMNDTSVCHSNMFDRIRRFSGLERSIVFGINPIATEQPISHNLLICLASRAMKYLYILYALTPEGQSSTVAC | not soluble
15 | MKHFDFSLRIWPISLWFVKHSGVKNPMNEVIIREITSEDKEMFLCAMQSSQALHHPWVKAPIIPEEFDEYFSRYQKPNQKSYLLLSDNNLAGVFNISEIVRGYFQNAYLGFYVVAAYAGKGYMSTGLKLILTKVFKDMGLHRLEANIQPENTRSIWLVKKNGFRYEGFSPRYLRVNDVWQGHEHWAMTYEDFIKDNNEVLEKDHIDIVAYNTEWPLLAKAEMVKLRASFPANSVIDIQHVGSTAIPGMASKPIIDIQIAVRSLEEMKIIAVPILQKLDYEYWEDNPDPERMFFVKGMPPYGNGRTHHVHIVEASSRHWKGKTFFRDYLLSHPEAAEKYQQLKIKLAQEHKYDREQYTDAKSEFINQILKLAQN | not soluble
16 | MKHHHHHHQGKITLYEDRGFQGRHYECSSDHTNLQPYLSRCNSARVDSGCWMLYEQPNYSGLQYFLRRGDYADHQQWMGLSDSVRSCRLIPHSGSHRIRLYEREDYRGQMIEFTEDCSCLQDRFRFNEIHSLNVLEGSWVLYELSNYRGRQYLLMPGDYRRYQDWGATNARVGSLRRVIDFS | soluble
17 | MKHICLYFQIHQPFRLKRYRFFDIGNDHYYYDDFRNEEIMRRITQKCYLPANLLLKEIIAEHPEFRVAFSISGTALEQLESYSPEALDTFRDLAETGCVEFLAETYAHSLSSLYDPEEFYNQTMIHSRRMEELFGVKPRVLRNTELIFSDNIATQVAEMGFQGMLTEGAKHILGWKSPNYLYKAGSAPELSLLLRNPRLSDAISAMFTRYDWNEYPLTADKMIRWIEETPEEEQIFNLFMNYEVLGSLHPQESGIFDFFRALPSLAKKSEGVKFATPSELIESSSPVAKFSSIYPISWVGEEKDTGTWLGNVLQQGACDKLEQWGERVRMIDDQRMLQDWLYLQSADHFYYMKTRGGDAGNFSPYETPYDAFNNYMNVLSDFLLRVEARYPSTIENEELKALLTTIRNQDKQIKKLEETIKRQKTKTT | not soluble
18 | MKHIIILGDGMADWPVKSLGDKTLLQYAKTPYMDKLARMGRNGRLITVAEGFHPGSEVANMSVLGYNLPKVYEGRGPLEAASIGVDLKPGEMAMRCNLICVEGEILKNHSSGHISTEEADVLIQYLQEKLGNDRVRFHTGVQYRHLLVIKGGNKELDCTPPHDVPLKPFRPLMVKPLVPEAQETADLINDLILKSQELLKNHPLNLKRMSEGKDPANSIWPWSPGYRPQMPAFSETFPQVKKGAVISAVDLINGIGYYAGLRRIAVEGATGLYNTNYENKVAAALEALKTDDFVYLHIEASDEAGHEGDIDLKLLTIENLDKRAVGPIYEAVKDWDEPVAIAVLPDHPTPCELRTHTSDPIPFLIWYPGIEPDEVQTYDEISACDGSYGVLKEDEFIKEFMNQKNIQ | not soluble
19 | MKHTIGILGGMGPAATADMLEKFVELRHASCDQQHIPLIVSSIPDIPDRTACLLSGGPSPYRYLERYLHMLEDAGAECIVIPCNTAHYWFDDLQNVAKARMISILDATLGDIPPSARHVGLLATNATLATGLYQKKALARGLTLIQPEDAGQALVMQAIYTLKRGDKTAAQALLLPQIDSLIARGAQAIIMGCTEIPLIVAGHERAIACPMIDSTASLVRAAIRWYESWPDTRASLTGEQRLTA | not soluble
20 | MKHVKKEKAEKLEKERQRHIGKPLLGGPFSLTTHTGERKTDKDYLGQWLLIYFGFTHCPDVCPEELEKMIQVVDEIDSITTLPDLTPLFISIDPERDTKEAIANYVKEFSPKLVGLTGTREEVDQVARAYRVYYSPGPKDEDEDYIVDHTIIMYLIGPDGEFLDYFGQNKRKGEIAASIATHMRPYRKKS | soluble
